Here are results for 40 sequences from the supplement of paper PMC11780869.

This data set concerns Bacillus subtilis. The data set can be described thus: cleaved RNA product abundance (RNA/gDNA barcode ratio) relative to median wild-type variant (ratio to wild type); higher = more accumulation of the downstream cleavage product. Conditions: cleavage site: cggR-gapA (positions -7 to +36 mutated). An outline of the steps:
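Oligos with a 9% error rate were used to build barcoded, mutagenized RNase Y cleavage-site windows within truncated aprE or tetM reporter mRNAs, which were integrated into the B. subtilis chromosome. Cultures were grown in LB at 37°C between OD600 0.0003 and 0.3. Cleaved RNA was gel-selected, reverse transcribed and barcode-sequenced, as were genomic DNA barcodes, and UMIs were collapsed. Cleaved product abundance is the scaled RNA:gDNA barcode ratio, with the median construct carrying the unmutated site as reference.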

[1] abbreviates: experiment (reporter, strain, medium): exp 4a: truncated aprE reporter, strain BJT201 with 2% xylose (RNase J1 expressed).
[2] abbreviates: experiment (reporter, strain, medium): exp 2b: truncated aprE reporter, strain BJT200.

Regarding “ACAGACGAAGGAGCCGCAAAGAAGTTATTAAAGGATGGATAATCCCTCAATATAAATATCTCTCACTTATTTAAA”, under setting [1], the “cleaved RNA product abundance” value is 0.141.

As to “ACAGACGAAGGAGCCGCAAAGAAGTTATTAAAGGATGTATAATCCCTCAATATAAATATCTCTCACTTATTTAAA”, the “cleaved RNA product abundance” value under setting [1] stood at 0.177.

As for “ACAGACGAAGGAGCCGCAAAGAAGTTATTAAAGGATTAATAATCCCTCAATATAAATATCTCTCACTTATTTAAA”, the “cleaved RNA product abundance” value worked out at 0.154 under setting [2] and 0.205 under setting [1].

“ACAGACGAAGGAGCCGCAAAGAAGTTATTAAAGGCTGAATAATCCCTCAATATAAATATCTCTCACTTATTTAAA”: the “cleaved RNA product abundance” value was 0.0927 under setting [2] and 0.0571 under setting [1].

For the sequence “ACAGACGAAGGAGCCGCAAAGAAGTTATTAAAGGGATGAATAATCCCTCAATATAAATATCTCTCACTTATTTAA”, the “cleaved RNA product abundance” value came to 0.283 under setting [2] and 0.35 under setting [1].

“ACAGACGAAGGAGCCGCAAAGAAGTTATTAAAGGGTGAATAATCCCTCAATATAAATATCTCTCACTTATTTAAA”: the “cleaved RNA product abundance” value under setting [1] is 0.202.

“ACAGACGAAGGAGCCGCAAAGAAGTTATTAAAGGTTGAATAATCCCTCAATATAAATATCTCTCACTTATTTAAA”: the “cleaved RNA product abundance” value under setting [1] was determined as 0.0853.

On to “ACAGACGAAGGAGCCGCAAAGAAGTTATTAAAGTATGAATAAACCCTCAATATAAATATCTCTCACTTATTTAAA”, for which the “cleaved RNA product abundance” value under setting [2] amounted to 0.102.

“ACAGACGAAGGAGCCGCAAAGAAGTTATTAAAGTATGAATAATCCCTCAATATAAATATCTCTCACTTATTTAAA”: the “cleaved RNA product abundance” value runs as follows: under setting [2], 0.0922; under setting [1], 0.124.

For the sequence “ACAGACGAAGGAGCCGCAAAGAAGTTATTAAATGATGAATAATCCATCAATATAAATATCTCTCACTTATTTAAA”, the “cleaved RNA product abundance” value under setting [1] came out at 0.162.

Regarding “ACAGACGAAGGAGCCGCAAAGAAGTTATTAAATGATGAATAATCCCTCAATATAAATATCTCTCACTTATTTAAA”, the “cleaved RNA product abundance” value under setting [2] was determined as 0.0939 and the “cleaved RNA product abundance” value under setting [1] is 0.1.

With “ACAGACGAAGGAGCCGCAAAGAAGTTATTAAATGATGAATAATCCCTCAATATATATATCTCTCACTTATTTAAA”, under setting [1], the “cleaved RNA product abundance” value stood at 0.13.

Consider “ACAGACGAAGGAGCCGCAAAGAAGTTATTAACAGATGAATAATCCCTCAATATAAATATCTCTCACTTATTTAAA”, for which the “cleaved RNA product abundance” value came out at 0.0822 under setting [2] and 0.0984 under setting [1].

For the sequence “ACAGACGAAGGAGCCGCAAAGAAGTTATTAACCGATGAATAATCCCTCAATATAAATATCTCTCACTTATTTAAA”, the “cleaved RNA product abundance” value runs as follows: under setting [2], 0.0926; under setting [1], 0.0751.

In the case of “ACAGACGAAGGAGCCGCAAAGAAGTTATTAACGAATGAATAATCCCTCAATATAAATATCTCTCACTTATTTAAA”, the “cleaved RNA product abundance” value under setting [2] came out at 0.0836 and the “cleaved RNA product abundance” value under setting [1] was 0.0881.

As to “ACAGACGAAGGAGCCGCAAAGAAGTTATTAACGAATTAATAATCCCTCAATATAAATATCTCTCACTTATTTAAA”, the “cleaved RNA product abundance” value under setting [1] came out at 0.0842.

Consider “ACAGACGAAGGAGCCGCAAAGAAGTTATTAACGCATGAATAATCCCTCAATATAAATATCTCTCACTTATTTAAA”, for which, under setting [1], the “cleaved RNA product abundance” value was found to be 0.0743.

In the case of “ACAGACGAAGGAGCCGCAAAGAAGTTATTAACGGAAGAATAATCCCTCAATATAAATATCTCTCACTTATTTAAA”, the “cleaved RNA product abundance” value under setting [1] turned out to be 0.152.

On to “ACAGACGAAGGAGCCGCAAAGAAGTTATTAACGGACGAATAATCCCTCAATATAAATATCTCTCACTTATTTAAA”, for which the “cleaved RNA product abundance” value came out at 0.0519 under setting [2] and 0.0823 under setting [1].

On to “ACAGACGAAGGAGCCGCAAAGAAGTTATTAACGGAGGAATAATCCCTCAATATAAATATCTCTCACTTATTTAAA”, for which the “cleaved RNA product abundance” value under setting [1] came out at 0.171.

In the case of “ACAGACGAAGGAGCCGCAAAGAAGTTATTAACGGATAAATAATCCCTCAATATAAATATCTCTCACTTATTTAAA”, the “cleaved RNA product abundance” value reads like this: under setting [2], 0.103; under setting [1], 0.188.

On to “ACAGACGAAGGAGCCGCAAAGAAGTTATTAACGGATCAATAATCCCTCAATATAAATATCTCTCACTTATTTAAA”, for which the “cleaved RNA product abundance” value under setting [2] is 0.0668 and the “cleaved RNA product abundance” value under setting [1] turned out to be 0.104.

With “ACAGACGAAGGAGCCGCAAAGAAGTTATTAACGGATGAAAAATCCCTCAATATAAATATCTCTCACTTATTTAAA”, the “cleaved RNA product abundance” value was 0.104 under setting [2] and 0.133 under setting [1].

Turning to “ACAGACGAAGGAGCCGCAAAGAAGTTATTAACGGATGAACAATCCCTCAATATAAATATCTCTCACTTATTTAAA”, the “cleaved RNA product abundance” value under setting [2] came to 0.0917.

Turning to “ACAGACGAAGGAGCCGCAAAGAAGTTATTAACGGATGAAGAATCCCTCAATATAAATATCTCTCACTTATTTAAA”, the “cleaved RNA product abundance” value under setting [1] turned out to be 0.17.

For “ACAGACGAAGGAGCCGCAAAGAAGTTATTAACGGATGAATAAACCCTCAATATAAATATCTCTCACTTATTTAAA”, the “cleaved RNA product abundance” value runs as follows: under setting [2], 0.0962; under setting [1], 0.12.

“ACAGACGAAGGAGCCGCAAAGAAGTTATTAACGGATGAATAACCCCTCAATATAAATATCTCTCACTTATTTAAA”: the “cleaved RNA product abundance” value under setting [1] came out at 0.0802.

In the case of “ACAGACGAAGGAGCCGCAAAGAAGTTATTAACGGATGAATAATACCTCAATATAAATATCTCTCACTTATTTAAA”, the “cleaved RNA product abundance” value under setting [2] was found to be 0.0908 and the “cleaved RNA product abundance” value under setting [1] came to 0.136.

For “ACAGACGAAGGAGCCGCAAAGAAGTTATTAACGGATGAATAATCACTCAATATAAATATCTCTCACTTATTTAAA”, the “cleaved RNA product abundance” value by setting is: under setting [2], 0.0895; under setting [1], 0.106.

“ACAGACGAAGGAGCCGCAAAGAAGTTATTAACGGATGAATAATCCATCAATATAAATATCTCTCACTTATTTAAA”: the “cleaved RNA product abundance” value by setting is: under setting [2], 0.138; under setting [1], 0.233.

As for “ACAGACGAAGGAGCCGCAAAGAAGTTATTAACGGATGAATAATCCCACAATATAAATATCTCTCACTTATTTAAA”, the “cleaved RNA product abundance” value under setting [1] was determined as 0.133.

For the sequence “ACAGACGAAGGAGCCGCAAAGAAGTTATTAACGGATGAATAATCCCCCAATATAAATATCTCTCACTTATTTAAA”, the “cleaved RNA product abundance” value under setting [1] worked out at 0.173.

Take “ACAGACGAAGGAGCCGCAAAGAAGTTATTAACGGATGAATAATCCCGCAATATAAATATCTCTCACTTATTTAAA”: the “cleaved RNA product abundance” value under setting [1] stood at 0.392.

Take “ACAGACGAAGGAGCCGCAAAGAAGTTATTAACGGATGAATAATCCCTAAATATAAATATCTCTCACTTATTTAAA”: the “cleaved RNA product abundance” value runs as follows: under setting [1], 0.225; (experiment (reporter, strain, medium): exp 6: tetM reporter, strain 168) 0.194.

As for “ACAGACGAAGGAGCCGCAAAGAAGTTATTAACGGATGAATAATCCCTCAAAATAAATATCTCTCACTTATTTAAA”, the “cleaved RNA product abundance” value is 0.105 under setting [2] and 0.158 under setting [1].

Take “ACAGACGAAGGAGCCGCAAAGAAGTTATTAACGGATGAATAATCCCTCAACATAAATATCTCTCACTTATTTAAA”: the “cleaved RNA product abundance” value under setting [1] is 0.172.

On to “ACAGACGAAGGAGCCGCAAAGAAGTTATTAACGGATGAATAATCCCTCAATAAAAATATCTCTCACTTATTTAAA”, for which the “cleaved RNA product abundance” value under setting [1] came to 0.08.

Take “ACAGACGAAGGAGCCGCAAAGAAGTTATTAACGGATGAATAATCCCTCAATACAAATATCTCTCACTTATTTAAA”: the “cleaved RNA product abundance” value under setting [1] is 0.0789.

As to “ACAGACGAAGGAGCCGCAAAGAAGTTATTAACGGATGAATAATCCCTCAATATAAAAATCTCTCACTTATTTAAA”, the “cleaved RNA product abundance” value under setting [2] came out at 0.156 and the “cleaved RNA product abundance” value under setting [1] is 0.116.

For “ACAGACGAAGGAGCCGCAAAGAAGTTATTAACGGATGAATAATCCCTCAATATAAATATCTCTCACTTATTAAAG”, under setting [1], the “cleaved RNA product abundance” value is 0.172.
